Kd data for 18 molecules are collected here from patent US20030068675, “Position dependent recognition of GNN nucleotide triplets by zinc fingers” (published 2003).

Changes are numbered by the printed parent chain.

Holding throughout (experiment): EMSA
What all share (details): tags: MBP fusion
On the technique in general: A gel shift assay detects complexes by their altered migration in electrophoresis.

In one data set the target is ZFP SBS#337 (synthetic). How it is done:
(§1) Affinity is measured by titrating purified protein against a fixed amount of labeled double-stranded oligonucleotide target. The target typically comprises the natural binding site sequence flanked by the 3 bp found in the natural sequence and additional, constant flanking sequences. The natural binding site is typically 9 bp for a three-finger protein and 2×9 bp +intervening bases for a six finger ZFP. […] For the assay the target is added at a concentration of 1 nM or lower (the actual concentration is kept at least 10-fold lower than the expected dissociation constant), purified ZFPs are added at various concentrations, and the reaction is allowed to equilibrate for at least 45 min. In addition the reaction mixture also contains 10 mM Tris (pH 7.5), 100 mM KCl, 1 mM MgCl2, 0.1 mM ZnCl2, 5 mM DTT, 10% glycerol, 0.02% BSA. (NB: in earlier assays poly d(IC) was also added at […].) The equilibrated reactions are loaded onto a 10% polyacrylamide gel, which has been pre-run for 45 min in Tris/glycine buffer, then bound and unbound labeled target is resolved by electrophoresis at 150V.

A further data set concerns the target ZFP SBS#339 (synthetic). The method, then:
as §1

Another data set addresses ZFP SBS#338 (synthetic). How it is done:
as §1

For the next data set, the target named is ZFP SBS#343 (synthetic). How it is done: as §1
The next data set has as its target ZFP SBS#346 (synthetic). How it is done: as §1
The next data set deals with ZFP SBS#345 (synthetic). The method, then:
as §1

For another data set, the target named is ZFP SBS#344 (synthetic). The method, then:
as §1

The target of another data set is T1, ZFP SBS#340 (synthetic).
T1 chain: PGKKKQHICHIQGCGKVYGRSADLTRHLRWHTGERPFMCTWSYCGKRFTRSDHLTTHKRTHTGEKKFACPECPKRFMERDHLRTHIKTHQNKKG
How it is done: as §1

For a further data set, the target named is ZFP SBS#397 (synthetic). The method, then:
as §1

A further data set addresses ZFP SBS#396 (synthetic). How it is done: as §1
The next data set deals with T2, ZFP SBS#390 (synthetic).
T2 chain: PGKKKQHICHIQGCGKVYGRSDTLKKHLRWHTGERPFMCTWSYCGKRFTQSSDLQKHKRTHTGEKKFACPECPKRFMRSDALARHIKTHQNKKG
How it is done:
as §1

Another data set addresses T3, ZFP SBS#384 (synthetic).
T3 chain: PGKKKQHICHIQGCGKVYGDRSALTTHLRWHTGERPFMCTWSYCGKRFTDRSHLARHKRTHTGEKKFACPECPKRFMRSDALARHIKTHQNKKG
How it is done: as §1

Another data set deals with T4, ZFP SBS#494 (synthetic).
T4 chain: T1 chain with A22D, D23N, H53N, T56R, E78D, D80S, H81S, R83T, T84R
The method, then: as §1

The target in a further data set is T5, ZFP SBS#378 (synthetic).
T5 chain: T1 chain with A22D, D23N, H53N, T56R, E78D, D80S, H81S, R83T, T84R
How it is done: as §1

A further data set has as its target T6, ZFP SBS#379 (synthetic).
T6 chain: T1 chain with A22D, D23N, H53N, T56R, D80G, H81T, R83A, T84R
How it is done: as §1

For the next data set, the target named is ZFP SBS#412 (synthetic). The method, then:
as §1

For another data set, the target named is T7, ZFP SBS#410 (synthetic).
T7 chain: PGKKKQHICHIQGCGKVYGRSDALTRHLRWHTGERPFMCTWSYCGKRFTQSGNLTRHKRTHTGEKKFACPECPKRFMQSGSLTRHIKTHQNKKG
How it is done: as §1

The next data set deals with ZFP SBS#509 (synthetic). The method, then:
as §1

A further data set concerns the target T8, ZFP SBS#385 (synthetic).
T8 chain: T1 chain with A22D, D23N, H53T, T55K, T56K, E78R, R79S, R83S, T84R
The method, then:
as §1

In a further data set the target is T9, ZFP SBS#386 (synthetic, UniProt P08047).
T9 chain: T1 chain with A22D, D23N, H53E, T55Q, T56R, E78R, R79S, R83S, T84R
The method, then: as §1

The target of a further data set is T10, ZFP SBS#493 (synthetic, UniProt P08047).
T10 chain: T2 chain with Q50R, S52D, D53S, Q55A, K56R, A81H, A83S
How it is done: as §1

Another data set concerns the target T11, ZFP SBS#400 (synthetic).
T11 chain: T7 chain with T25A, Q50R, G52D, N53S, T55A, S81D, T83R, R84T
How it is done: as §1

For the next data set, the target named is ZFP SBS#413 (synthetic). The method, then:
as §1

For the next data set, the target named is ZFP SBS#502 (synthetic, UniProt P08047). The method, then: as §1
Chain of ZFP SBS#502 (P08047 other isoform, or with tags, fused parts or gaps): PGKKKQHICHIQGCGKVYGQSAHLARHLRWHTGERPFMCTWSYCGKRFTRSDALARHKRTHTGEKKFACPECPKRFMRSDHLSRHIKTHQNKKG
The target in the next data set is T12, ZFP SBS#409 (synthetic).
T12 chain: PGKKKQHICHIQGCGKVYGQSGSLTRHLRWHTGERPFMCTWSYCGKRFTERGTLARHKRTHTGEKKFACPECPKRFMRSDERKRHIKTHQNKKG
How it is done: as §1

For a further data set, the target named is T13, ZFP SBS#406 (synthetic).
T13 chain: T12 chain with Q20R, G22D, S23E, E50D, G52S, T53S, A55T
How it is done:
as §1

The target of the next data set is T14, ZFP SBS#405 (synthetic).
T14 chain: T12 chain with Q20R, G22D, S23E
How it is done: as §1

A further data set addresses T15, ZFP SBS#407 (synthetic).
T15 chain: T12 chain with G22W, S23E
The method, then:
as §1

The target of a further data set is T16, ZFP SBS#408 (synthetic).
T16 chain: T12 chain with G22W, S23E, E50D, G52S, T53S, A55T
How it is done:
as §1

In another data set the target is ZFP SBS#510 (synthetic). The method, then: as §1
Chain of ZFP SBS#510 (synthetic) (chain, as listed by the source): as the sequence (P08047 other isoform, or with tags, fused parts or gaps) above, with A22G, H23N, A53N, R78N, S79R, D80A, H81T, S83A counted along it
In another data set the target is ZFP SBS#511 (synthetic). The method, then: as §1
Chain of ZFP SBS#511 (synthetic) (chain, as listed by the source): as the sequence (P08047 other isoform, or with tags, fused parts or gaps) above, with A22G, H23N, A53N, R78Q, D80S, H81A, S83A counted along it
The next data set addresses T17, ZFP SBS#507 (synthetic).
T17 chain: T2 chain with T23N, K25A, K26R, S51R, D53A, Q55A, K56R, A81N
How it is done: as §1

A further data set deals with T18, ZFP SBS#508 (synthetic).
T18 chain: T2 chain with T23N, K25A, K26R, S52A, D53T, Q55A, K56R, A81N
The method, then:
as §1

Another data set deals with T19, ZFP SBS#501 (synthetic).
T19 chain: T3 chain with D20N, S22A, A23T, T25A, T26R, D50R, R51S, S52D, A55S
The method, then:
as §1

Another data set concerns the target ZFP SBS#387 (synthetic). The method, then: as §1
The target of a further data set is ZFP SBS#388 (synthetic). How it is done: as §1
Chain of ZFP SBS#388 (synthetic) (chain, as listed by the source): as the sequence (P08047 other isoform, or with tags, fused parts or gaps) above, with A22G, H23D, A25T, A53N, R78D, S79R, D80S, S83A counted along it

Chain of ZFP SBS#339 (synthetic) (chain, as listed by the source): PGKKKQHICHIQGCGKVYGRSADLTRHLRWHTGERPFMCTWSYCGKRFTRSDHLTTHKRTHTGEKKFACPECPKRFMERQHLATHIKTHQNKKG
Chain of ZFP SBS#397 (synthetic) (chain, as listed by the source): as the sequence (P08047 other isoform, or with tags, fused parts or gaps) above, with A22G, H23D, A25T, R50Q, D52G, A53H, A55Q, H81T, S83K, R84K counted along it
Chain of ZFP SBS#338 (synthetic) (chain, as listed by the source): as the sequence (P08047 other isoform, or with tags, fused parts or gaps) above, with Q20R, H23D, A25T, A53H, A55T, R78E, S79R, S83R, R84T counted along it
Chain of ZFP SBS#413 (synthetic) (chain, as listed by the source): as the sequence (P08047 other isoform, or with tags, fused parts or gaps) above, with A22G, H23S, A25T, A53H, A55T, R56T, H81E, L82R, S83K counted along it
Chain of ZFP SBS#412 (synthetic) (chain, as listed by the source): as the sequence (P08047 other isoform, or with tags, fused parts or gaps) above, with A22G, H23S, A25T, A53H, A55T, R56T, H81E, L82R, S83K counted along it
Chain of ZFP SBS#509 (synthetic) (chain, as listed by the source): as the sequence (P08047 other isoform, or with tags, fused parts or gaps) above, with Q20R, A22D, A25T, R26T, R78D, S79R, D80S, H81A, S83A counted along it
Chain of ZFP SBS#344 (synthetic) (chain, as listed by the source): as the sequence (P08047 other isoform, or with tags, fused parts or gaps) above, with A22G, H23S, A25T, A53H, A55T, R78E, S79R, S83R, R84T counted along it
Chain of ZFP SBS#337 (synthetic) (chain, as listed by the source): as the sequence (P08047 other isoform, or with tags, fused parts or gaps) above, with Q20R, H23D, A25T, A53H, A55T, R78E, S79R, D80Q, S83A, R84T counted along it
Chain of ZFP SBS#396 (synthetic) (chain, as listed by the source): as the sequence (P08047 other isoform, or with tags, fused parts or gaps) above, with A22G, H23S, A25T, R50Q, D52G, A53H, A55Q, H81T, S83K, R84K counted along it
Chain of ZFP SBS#387 (synthetic) (chain, as listed by the source): as the sequence (P08047 other isoform, or with tags, fused parts or gaps) above, with A22G, H23S, A25T, A53N, R78D, S79R, D80S, S83A counted along it

B1: TGCGGGGCAA (dsDNA)
DNA 1: TGCGGGGCAA
DNA 2: TTGCCCCGCA
Take B1: the Kd – broadly, the constant that tells how readily two partners part at equilibrium – was 24 nM with ZFP SBS#337; 64 nM with ZFP SBS#339; 8 nM with ZFP SBS#338; 8 nM with ZFP SBS#343; 64 nM in the data set with ZFP SBS#346; 96 nM with ZFP SBS#345. Further, the Kd with ZFP SBS#344 stood at 6 nM; with ZFP SBS#340, 48 nM.

B2: GCGGGAGCAG (dsDNA)
DNA 1: GCGGGAGCAG
DNA 2: CTGCTCCCGC
Regarding B2, the Kd with ZFP SBS#397 worked out at 25 nM; with ZFP SBS#396 it was 18.8 nM.

B3: GTGGCAGCGG (dsDNA)
DNA 1: GTGGCAGCGG
DNA 2: CCGCTGCCAC
The molecule B3 yielded a dissociation constant (Kd) in the data set with ZFP SBS#390 of 20 nM.

B4: GTGGGCTTCA (dsDNA)
DNA 1: GTGGGCTTCA
DNA 2: TGAAGCCCAC
B4 returned a Kd with ZFP SBS#384 of 60 nM. In other words, the double-digit nanomolar range.

B5: GCCGAGGAGA (dsDNA)
DNA 1: GCCGAGGAGA
DNA 2: TCTCCTCGGC
Turning to B5, the Kd with ZFP SBS#494 amounted to 90 nM; with ZFP SBS#378, 31 nM; in the data set with ZFP SBS#379, 3 nM.

B6: GCGTGGGCG (dsDNA)
DNA 1: GCGTGGGCG
DNA 2: CGCCCACGC
In the case of B6, the Kd in the data set with ZFP SBS#412 was found to be 5 nM.

B7: GCAGAAGTC (dsDNA)
DNA 1: GCAGAAGTC
DNA 2: GACTTCTGC
B7 showed a Kd in the data set with ZFP SBS#410 of 3 nM.

B8: GTCGTGTGGC (dsDNA)
DNA 1: GTCGTGTGGC
DNA 2: GCCACACGAC
B8 registered a Kd with ZFP SBS#509 of 100 nM.

B9: GGGGCGGAGC (dsDNA)
DNA 1: GGGGCGGAGC
DNA 2: GCTCCGCCCC
B9: the Kd in the data set with ZFP SBS#385 was found to be 1.2 nM; with ZFP SBS#386, 0.4 nM.

B10: GGGGTGGCGG (dsDNA)
DNA 1: GGGGTGGCGG
DNA 2: CCGCCACCCC
For the molecule B10, the affinity with ZFP SBS#493, expressed as Kd, was 300 nM.

B11: TCAGTGGTGG (dsDNA)
DNA 1: TCAGTGGTGG
DNA 2: CCACCACTGA
In the data set with ZFP SBS#400, B11 returned a Kd of 40 nM.

B12: GCGTGGGCA (dsDNA)
DNA 1: GCGTGGGCA
DNA 2: TGCCCACGC
In the data set with ZFP SBS#413, B12 came in with a Kd of 5 nM.

B13: GGGGTGGGA (dsDNA)
DNA 1: GGGGTGGGA
DNA 2: TCCCACCCC
In turn, B13 showed a Kd with ZFP SBS#502 of 60 nM. This lies in the double-digit nanomolar range.

B14: GCGGCCGCA (dsDNA)
DNA 1: GCGGCCGCA
DNA 2: TGCGGCCGC
Consider B14, for which the Kd was 50 nM with ZFP SBS#409; 110 nM with ZFP SBS#406; 110 nM in the data set with ZFP SBS#405; 410 nM with ZFP SBS#407; 380 nM in the data set with ZFP SBS#408.

B15: GTTGAGGAAG (dsDNA)
DNA 1: GTTGAGGAAG
DNA 2: CTTCCTCAAC
B15: the Kd in the data set with ZFP SBS#510 and with ZFP SBS#511 was 100 nM each time.

B16: GAGGTAGAGG (dsDNA)
DNA 1: GAGGTAGAGG
DNA 2: CCTCTACCTC
Take B16: the dissociation constant (Kd) with ZFP SBS#507 and with ZFP SBS#508 was 10 nM each time.

B17: GTGGGGGTT (dsDNA)
DNA 1: GTGGGGGTT
DNA 2: AACCCCCAC
Take B17: the Kd with ZFP SBS#501 worked out at 8 nM. That is a single-digit nanomolar value.

B18: GGCGAGGCAA (dsDNA)
DNA 1: GGCGAGGCAA
DNA 2: TTGCCTCGCC
Turning to B18, the Kd stood at 2.5 nM with ZFP SBS#387 and 28 nM with ZFP SBS#388.
